This assay deals with E. cloacae Cap2 (C109A/C548A), catalytically dead (E. cloacae). Kind of assay: cryo-EM structure.

By stoichiometry N is commonly meant a count of units in the complex or per binding partner.

Consider “E. cloacae Cap2 (C109A/C548A), catalytically dead (enzyme)”, for which the stoichiometry N is 2.
